Drawing on the supplement of paper PMC10567573, this text covers protein stability index for 109 variants.

To fix the notation:
B1: MATN2 (parent)
chain: TDDSYSCHCLKGFTLNPDKKTCRR
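Also: lentivirally expressed fusions sorted by FACS into six bins by GFP to DsRed ratio, PSI derived from sequencing read proportions per bin multiplied by bin number.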

The variants in the series derive from B1. Briefly: protein stability index of a GFP-peptide fusion (GPS, HEK-293T) (PSI 1-6); higher = more stable. To be noted: c terminus: a fixed tail appended.
Regarding TDDSYSCHCLKGFTLNPDNKTCRR [K19N], the protein stability index came to 2.2.

With TDDSYSCHCLKGFTLNPDWKTCRR [K19W], the protein stability index was 1.16.

For the variant TDDSYSCHCLKGFTLNPDLKTCRR [K19L], the protein stability index turned out to be 2.21.

Take TDDSYSCHCLKGFTLNPDMKTCRR [K19M]: the protein stability index was found to be 2.17.

For the variant TDDSYSCHCLKGFTLNPDHKTCRR [K19H], the protein stability index came to 3.66.

For TDDSYSCHCLKGFTLNPDSKTCRR [K19S], the protein stability index is 2.18.

In the case of TDDSYSCHCLKGFTLNPDTKTCRR [K19T], the protein stability index was 2.06.

Consider TDDSYSCHCLKGFTLNPDGKTCRR [K19G], for which the protein stability index was 1.62.

As for TDDSYSCHCLKGFTLNPDQKTCRR [K19Q], the protein stability index was 2.41.

Consider TDDSYSCHCLKGFTLNPDIKTCRR [K19I], for which the protein stability index amounted to 2.01.

In the case of TDDSYSCHCLKGFTLNPDYKTCRR [K19Y], the protein stability index was 2.25.

As to TDDSYSCHCLKGFTLNPDPKTCRR [K19P], the protein stability index worked out at 2.19.

In the case of TDDSYSCHCLKGFTLNPDVKTCRR [K19V], the protein stability index was 2.3.

As to TDDSYSCHCLKGFTLNPDRKTCRR [K19R], the protein stability index was found to be 2.12.

For the variant TDDSYSCHCLKGFTLNPDKKTERR [C22E], the protein stability index is 2.02.

As for TDDSYSCHCLKGFTLNPDKKTHRR [C22H], the protein stability index was found to be 2.18.

For TDDSYSCHCLKGFTLNPDKKTPRR [C22P], the protein stability index was determined as 3.

Regarding TDDSYSCHCLKGFTLNPDKKTARR [C22A], the protein stability index was determined as 2.

As for TDDSYSCHCLKGFTLNPDKKTSRR [C22S], the protein stability index was determined as 2.42.

As for TDDSYSCHCLKGFTLNPDKKTWRR [C22W], the protein stability index was 1.67.

TDDSYSCHCLKGFTLNPDKKTTRR [C22T]: the protein stability index came out at 2.44.

TDDSYSCHCLKGFTLNPDKKTRRR [C22R]: the protein stability index was 2.86.

Consider TDDSYSCHCLKGFTLNPDKKTIRR [C22I], for which the protein stability index turned out to be 2.09.

Consider TDDSYSCHCLKGFTLNPDKKTMRR [C22M], for which the protein stability index stood at 1.88.

TDDSYSCHCLKGFTLNPDKKTVRR [C22V]: the protein stability index amounted to 3.13.

For the variant TDDSYSCHCLKGFTLNPDKKTNRR [C22N], the protein stability index was found to be 2.75.

For the variant TDDSYSCHCLKGFTLNPDKKTQRR [C22Q], the protein stability index is 2.27.

Turning to TDDSYSCHCLKGFTLNPDKKTDRR [C22D], the protein stability index came out at 2.69.

With TDDSYSCHCLKGFTLNPDKKTGRR [C22G], the protein stability index is 2.27.

With TDDSYSCHCLKGFTLNPDKKTYRR [C22Y], the protein stability index turned out to be 1.94.

On to TDDSYSCHCLKGFTLNPDKKTFRR [C22F], for which the protein stability index is 2.16.

For the variant TDDSYSCHCLKGFTLNPDKKTLRR [C22L], the protein stability index was determined as 2.93.

In the case of TDDSYSCHCLKGFTLNPDKKTKRR [C22K], the protein stability index is 3.37.

As for TDDSYSCHCLKGFTLNPDKKTCMR [R23M], the protein stability index was found to be 1.5.

Regarding TDDSYSCHCLKGFTLNPDKKTCLR [R23L], the protein stability index came to 2.36.

In the case of TDDSYSCHCLKGFTLNPDKKTCCR [R23C], the protein stability index came to 2.83.

As to TDDSYSCHCLKGFTLNPDKKTCKR [R23K], the protein stability index came out at 2.76.

For the variant TDDSYSCHCLKGFTLNPDKKTCVR [R23V], the protein stability index was found to be 2.48.

Take TDDSYSCHCLKGFTLNPDKKTCYR [R23Y]: the protein stability index turned out to be 2.2.

Consider TDDSYSCHCLKGFTLNPDKKTCQR [R23Q], for which the protein stability index turned out to be 2.78.

In the case of TDDSYSCHCLKGFTLNPDKKTCDR [R23D], the protein stability index came to 2.62.

Turning to TDDSYSCHCLKGFTLNPDKKTCTR [R23T], the protein stability index worked out at 2.52.

As to TDDSYSCHCLKGFTLNPDKKTCHR [R23H], the protein stability index amounted to 1.91.

In the case of TDDSYSCHCLKGFTLNPDKKTCGR [R23G], the protein stability index worked out at 2.62.

With TDDSYSCHCLKGFTLNPDKKTCER [R23E], the protein stability index stood at 2.52.

Take TDDSYSCHCLKGFTLNPDKKTCNR [R23N]: the protein stability index turned out to be 2.71.

Turning to TDDSYSCHCLKGFTLNPDKKTCFR [R23F], the protein stability index turned out to be 1.86.

TDDSYSCHCLKGFTLNPDKKTCSR [R23S]: the protein stability index is 2.29.

Regarding TDDSYSCHCLKGFTLNPDKKTCWR [R23W], the protein stability index is 2.26.

Turning to TDDSYSCHCLKGFTLNPDKKTCAR [R23A], the protein stability index stood at 2.41.

For TDDSYSCHCLKGFTLNPDKKTCIR [R23I], the protein stability index came to 2.02.

In the case of TDDSYSCHCLKGFTLNPDKKTCPR [R23P], the protein stability index was determined as 2.56.

Turning to TDDSYSCHCLKGFTLNPDKKICRR [T21I], the protein stability index was 2.4.

As for TDDSYSCHCLKGFTLNPDKKQCRR [T21Q], the protein stability index was 2.64.

Consider TDDSYSCHCLKGFTLNPDKKSCRR [T21S], for which the protein stability index stood at 2.36.

As to TDDSYSCHCLKGFTLNPDKKHCRR [T21H], the protein stability index is 2.62.

Consider TDDSYSCHCLKGFTLNPDKKLCRR [T21L], for which the protein stability index came to 2.15.

Turning to TDDSYSCHCLKGFTLNPDKKCCRR [T21C], the protein stability index stood at 2.75.

Turning to TDDSYSCHCLKGFTLNPDKKECRR [T21E], the protein stability index was 2.89.

For TDDSYSCHCLKGFTLNPDKKWCRR [T21W], the protein stability index came to 1.83.

Take TDDSYSCHCLKGFTLNPDKKVCRR [T21V]: the protein stability index is 2.41.

As to TDDSYSCHCLKGFTLNPDKKDCRR [T21D], the protein stability index worked out at 2.6.

Take TDDSYSCHCLKGFTLNPDKKGCRR [T21G]: the protein stability index is 1.33.

Turning to TDDSYSCHCLKGFTLNPDKKMCRR [T21M], the protein stability index worked out at 2.57.

In the case of TDDSYSCHCLKGFTLNPDKKNCRR [T21N], the protein stability index came to 2.32.

On to TDDSYSCHCLKGFTLNPDKKYCRR [T21Y], for which the protein stability index is 2.27.

Turning to TDDSYSCHCLKGFTLNPDKKPCRR [T21P], the protein stability index is 2.36.

As to TDDSYSCHCLKGFTLNPDKKKCRR [T21K], the protein stability index came to 2.06.

Turning to TDDSYSCHCLKGFTLNPDKKFCRR [T21F], the protein stability index amounted to 1.57.

TDDSYSCHCLKGFTLNPDKKRCRR [T21R]: the protein stability index was 2.34.

Turning to TDDSYSCHCLKGFTLNPDKKACRR [T21A], the protein stability index amounted to 2.2.

On to TDDSYSCHCLKGFTLNPDKATCRR [K20A], for which the protein stability index stood at 2.68.

With TDDSYSCHCLKGFTLNPDKMTCRR [K20M], the protein stability index came out at 1.78.

Regarding TDDSYSCHCLKGFTLNPDKTTCRR [K20T], the protein stability index turned out to be 1.6.

For the variant TDDSYSCHCLKGFTLNPDKWTCRR [K20W], the protein stability index is 1.48.

Regarding TDDSYSCHCLKGFTLNPDKETCRR [K20E], the protein stability index is 2.06.

As for TDDSYSCHCLKGFTLNPDKDTCRR [K20D], the protein stability index amounted to 2.29.

Turning to TDDSYSCHCLKGFTLNPDKYTCRR [K20Y], the protein stability index amounted to 1.53.

As to TDDSYSCHCLKGFTLNPDKSTCRR [K20S], the protein stability index amounted to 2.33.

For TDDSYSCHCLKGFTLNPDKGTCRR [K20G], the protein stability index turned out to be 2.09.

Consider TDDSYSCHCLKGFTLNPDKFTCRR [K20F], for which the protein stability index came out at 1.85.

For TDDSYSCHCLKGFTLNPDKHTCRR [K20H], the protein stability index came to 2.17.

As for TDDSYSCHCLKGFTLNPDKQTCRR [K20Q], the protein stability index came to 2.95.

Consider TDDSYSCHCLKGFTLNPDKNTCRR [K20N], for which the protein stability index is 2.04.

Turning to TDDSYSCHCLKGFTLNPDKPTCRR [K20P], the protein stability index worked out at 1.93.

Take TDDSYSCHCLKGFTLNPDKITCRR [K20I]: the protein stability index amounted to 2.1.

Take TDDSYSCHCLKGFTLNPDKVTCRR [K20V]: the protein stability index was 1.77.

As for TDDSYSCHCLKGFTLNPDKRTCRR [K20R], the protein stability index is 2.03.

For TDDSYSCHCLKGFTLNPDKCTCRR [K20C], the protein stability index stood at 4.55.

TDDSYSCHCLKGFTLNPDKLTCRR [K20L]: the protein stability index was determined as 1.32.

For the variant TDDSYSCHCLKGFTLNPDKKTCRA [R24A], the protein stability index turned out to be 2.87.

With TDDSYSCHCLKGFTLNPDKKTCRL [R24L], the protein stability index amounted to 2.38.

Take TDDSYSCHCLKGFTLNPDKKTCRD [R24D]: the protein stability index is 3.73.

In the case of TDDSYSCHCLKGFTLNPDKKTCRY [R24Y], the protein stability index was found to be 2.6.

On to TDDSYSCHCLKGFTLNPDKKTCRK [R24K], for which the protein stability index amounted to 2.99.

As to TDDSYSCHCLKGFTLNPDKKTCRM [R24M], the protein stability index turned out to be 2.19.

For TDDSYSCHCLKGFTLNPDKKTCRS [R24S], the protein stability index came to 2.87.

As to TDDSYSCHCLKGFTLNPDKKTCRQ [R24Q], the protein stability index was determined as 2.61.

Regarding TDDSYSCHCLKGFTLNPDKKTCRH [R24H], the protein stability index was found to be 4.06.

Regarding TDDSYSCHCLKGFTLNPDKKTCRE [R24E], the protein stability index was 3.43.

As to TDDSYSCHCLKGFTLNPDKKTCRF [R24F], the protein stability index worked out at 2.5.

Take TDDSYSCHCLKGFTLNPDKKTCRV [R24V]: the protein stability index is 2.32.

As for TDDSYSCHCLKGFTLNPDKKTCRI [R24I], the protein stability index stood at 1.6.

Take TDDSYSCHCLKGFTLNPDKKTCRP [R24P]: the protein stability index turned out to be 2.46.

Take TDDSYSCHCLKGFTLNPDKKTCRW [R24W]: the protein stability index was found to be 1.99.

For TDDSYSCHCLKGFTLNPDKKTCRC [R24C], the protein stability index amounted to 5.18.

Take TDDSYSCHCLKGFTLNPDKKTCRN [R24N]: the protein stability index was found to be 3.25.

Take TDDSYSCHCLKGFTLNPDKKTCRG [R24G]: the protein stability index worked out at 3.12.

Take TDDSYSCHCLKGFTLNPDKKTCRT [R24T]: the protein stability index came out at 3.15.
